# Results published in patent US20220275067A1 (PROTHENA BIOSCIENCES, published 2022).
# Molecular target: T1, recombinant human 4R0N tau (human, UniProt P10636 2-758)
# T1 construct: also called recombinant 4R0N human tau; P10636-6
# Assay: SPR Biacore T200; antibody captured by anti-human Fc; tau as analyte; global 1:1 fit
# Description: Target binding analysis was performed using a Biacore T200 to compare the binding affinity of humanized 9F5 variants to recombinant human 4R0N tau. Anti-Human Fc antibody was immobilized on sensor chip CM3 via amine coupling, and humanized 9F5 variants were captured to equivalent levels. Various concentrations of recombinant 4R0N human tau (ranging from 0.02 nM to 12.5 nM) were passed over the captured ligand at 50 μL/min in running buffer (HBS+0.05% P-20, 1 mg/mL BSA) for 180 seconds association/420 seconds dissociation as a single cycle. Data was blank subtracted to both an irrelevant sensor not containing antibody and 0 nM analyte concentration. Analysis was performed using a global 1:1 fit with Biacore Evaluation software.
# T1 sequence (P10636 other isoform, or with tags, fused parts or gaps limits assumed): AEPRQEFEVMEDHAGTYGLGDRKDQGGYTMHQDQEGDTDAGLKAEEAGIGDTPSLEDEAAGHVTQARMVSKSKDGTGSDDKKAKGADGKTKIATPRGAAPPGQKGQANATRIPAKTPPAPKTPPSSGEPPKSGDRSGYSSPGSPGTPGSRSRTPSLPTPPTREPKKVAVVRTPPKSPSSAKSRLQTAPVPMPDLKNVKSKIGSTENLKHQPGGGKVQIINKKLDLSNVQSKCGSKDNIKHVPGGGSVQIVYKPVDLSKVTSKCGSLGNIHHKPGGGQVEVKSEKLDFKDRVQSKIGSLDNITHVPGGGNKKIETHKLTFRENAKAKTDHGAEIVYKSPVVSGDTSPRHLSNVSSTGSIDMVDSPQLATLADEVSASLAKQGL
Kd,koff,kon,Binder
0.18 nM,0.000424 s⁻¹,2.36e+06 M⁻¹ s⁻¹,"hu9F5VHv9/hu9F5VLv8_DIM7 (antibody, V domains shown) VH: EVQLVQSGAEVKKPGATVKISCKASGFNIKDDYMNWVQQRPGKGLEWIGWIDPENGDTEYASKFQGRATMTADTSTNTAYMELSSLRSEDTAVYYCTTSNGWGQGTLVTVSS VL: DIQMTQSPFSLPVTPGESASISCRSSKSLDHSNGITYLYWYQQKPGQSPQLLIYQKSNRASGVPNRFSSSGSGTDFTLKISRVEAEDVGVYYCAQNIELPLTFGQGTKLEIK"
0.169 nM,0.000295 s⁻¹,1.75e+06 M⁻¹ s⁻¹,"hu9F5VHv9/hu9F5VLv8_DIM5 (antibody, V domains shown) VH: EVQLVQSGAEVKKPGATVKISCKASGFNIKDDYMNWVQQRPGKGLEWIGWIDPENGDTEYASKFQGRATMTADTSTNTAYMELSSLRSEDTAVYYCTTSNGWGQGTLVTVSS VL: DIQMTQSPFSLPVTPGESASISCRSSKSLGHSNGITYLYWYQQKPGQSPQLLIYQGSNRASGVPNRFSSSGSGTDFTLKISRVEAEDVGVYYCAQNIELPLTFGQGTKLEIK"
2.63 nM,0.00143 s⁻¹,542000 M⁻¹ s⁻¹,"hu9F5VHv9/hu9F5VLv8_DIM4 (antibody, V domains shown) VH: EVQLVQSGAEVKKPGATVKISCKASGFNIKDDYMNWVQQRPGKGLEWIGWIDPENGDTEYASKFQGRATMTADTSTNTAYMELSSLRSEDTAVYYCTTSNGWGQGTLVTVSS VL: DIQMTQSPFSLPVTPGESASISCRSSKSLSHSNGITYLYWYQQKPGQSPQLLIYQGSNRASGVPNRFSSSGSGTDFTLKISRVEAEDVGVYYCAQNGELPLTFGQGTKLEIK"
0.178 nM,0.000272 s⁻¹,1.53e+06 M⁻¹ s⁻¹,"hu9F5VHv9/hu9F5VLv8_DIM6 (antibody, V domains shown) VH: EVQLVQSGAEVKKPGATVKISCKASGFNIKDDYMNWVQQRPGKGLEWIGWIDPENGDTEYASKFQGRATMTADTSTNTAYMELSSLRSEDTAVYYCTTSNGWGQGTLVTVSS VL: DIQMTQSPFSLPVTPGESASISCRSSKSLDHSNGITYLYWYQQKPGQSPQLLIYQGSNRASGVPNRFSSSGSGTDFTLKISRVEAEDVGVYYCAQNIELPLTFGQGTKLEIK"

# Continued, binder first:
Binder,Kd,koff,kon
"hu9F5VHv9/hu9F5VLv8 (antibody, V domains shown) VH: EVQLVQSGAEVKKPGATVKISCKASGFNIKDDYMNWVQQRPGKGLEWIGWIDPENGDTEYASKFQGRATMTADTSTNTAYMELSSLRSEDTAVYYCTTSNGWGQGTLVTVSS VL: DIVMTQSPFSLPVTPGESASISCRSSKSLLHSNGITYLYWYLQKPGQSPQLLIYQMSNLASGVPNRFSSSGSGTDFTLKISRVEAEDVGVYYCAQNLELPLTFGQGTKLEIK",0.269 nM,0.000429 s⁻¹,1.72e+06 M⁻¹ s⁻¹
"hu9F5VHv9/hu9F5VLv8_DIM1 (antibody, V domains shown) VH: EVQLVQSGAEVKKPGATVKISCKASGFNIKDDYMNWVQQRPGKGLEWIGWIDPENGDTEYASKFQGRATMTADTSTNTAYMELSSLRSEDTAVYYCTTSNGWGQGTLVTVSS VL: DIQMTQSPFSLPVTPGESASISCRSSKSLSHSNGITYLYWYQQKPGQSPQLLIYQGSNGASGVPNRFSSSGSGTDFTLKISRVEAEDVGVYYCAQNIELPLTFGQGTKLEIK",0.844 nM,0.00559 s⁻¹,6.62e+06 M⁻¹ s⁻¹
"hu9F5VHv9/hu9F5VLv8_DIM3 (antibody, V domains shown) VH: EVQLVQSGAEVKKPGATVKISCKASGFNIKDDYMNWVQQRPGKGLEWIGWIDPENGDTEYASKFQGRATMTADTSTNTAYMELSSLRSEDTAVYYCTTSNGWGQGTLVTVSS VL: DIQMTQSPFSLPVTPGESASISCRSSKSLSHSNGITYLYWYQQKPGQSPQLLIYQGSNTASGVPNRFSSSGSGTDFTLKISRVEAEDVGVYYCAQNIELPLTFGQGTKLEIK",0.6 nM,0.00068 s⁻¹,1.13e+06 M⁻¹ s⁻¹
"hu9F5VHv9/hu9F5VLv8_DIM2 (antibody, V domains shown) VH: EVQLVQSGAEVKKPGATVKISCKASGFNIKDDYMNWVQQRPGKGLEWIGWIDPENGDTEYASKFQGRATMTADTSTNTAYMELSSLRSEDTAVYYCTTSNGWGQGTLVTVSS VL: DIQMTQSPFSLPVTPGESASISCRSSKSLSHSNGITYLYWYQQKPGQSPQLLIYQGSNRASGVPNRFSSSGSGTDFTLKISRVEAEDVGVYYCAQNIELPLTFGQGTKLEIK",0.299 nM,0.000586 s⁻¹,1.96e+06 M⁻¹ s⁻¹
